Measurements published in PMC8571072.
Where “and” joins values, the source holds several entries; their conditions need not be identical. Identical values can stand only once.

Molecular target: intelectin-2 (Xenopus laevis (endogenous in egg extract))
Assay: cryo-EM structure

intelectin-2 (natural protein)
stoichiometry N: 3 and 6
